From patent US10562947B2, “Compositions and methods for preventing or treating diseases, conditions or processes characterized by aberrant fibroblast proliferation and extracellular matrix deposition” (MOERAE MATRIX, INC., priority 2011, dated 2020)

Legend:
Experiment in all cases: Kinase Profiling Assay
Assay type in all cases: biochemical
Details in all cases: 100 μM peptide
CDK2/cyclinE(h) = CDK2/cyclinE(h) (Homo sapiens, UniProt P24941)
How it was run: (§1)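 First, MK2 inhibitor peptides were applied to a panel of 266 human kinases; then each kinase's activity was measured in duplicate to assess off-target inhibition.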

CDK5/p35(h) = CDK5/p35(h) (Homo sapiens, UniProt Q00535)
How it was run: as §1

Fyn(h) = Fyn(h) (Homo sapiens, UniProt P06241)
How it was run: as §1

Hck(h) activated = molecular target: T1, Hck(h) activated (Homo sapiens, UniProt P08631)
T1 construct: purchased Millipore
How it was run: as §1

Met(D1246H)(h) = Met(D1246H)(h) (Homo sapiens, UniProt P08581, D1228H)
How it was run: as §1

PhKγ2(h) = molecular target: T2, PhKγ2(h) (Homo sapiens, UniProt P15735)
T2 sequence (P15735 1-406): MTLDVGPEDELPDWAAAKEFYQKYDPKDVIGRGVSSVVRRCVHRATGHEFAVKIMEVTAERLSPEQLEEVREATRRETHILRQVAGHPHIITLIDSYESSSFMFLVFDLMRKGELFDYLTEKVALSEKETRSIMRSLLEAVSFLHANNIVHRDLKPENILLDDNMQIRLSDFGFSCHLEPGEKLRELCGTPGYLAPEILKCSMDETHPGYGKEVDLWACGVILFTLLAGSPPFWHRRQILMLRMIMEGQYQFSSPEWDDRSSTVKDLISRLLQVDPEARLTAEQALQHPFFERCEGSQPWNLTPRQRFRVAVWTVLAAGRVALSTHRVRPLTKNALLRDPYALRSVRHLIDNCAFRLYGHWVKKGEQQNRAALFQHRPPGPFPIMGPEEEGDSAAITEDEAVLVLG
How it was run: as §1

ROCK-II(h) = molecular target: T3, ROCK-II(h) (Homo sapiens, UniProt O75116)
T3 construct: purchased Millipore (IC50 Profiler Express service)
How it was run: as §1

Ros(h) = molecular target: T4, Ros(h) (Homo sapiens, UniProt P08922)
T4 construct: purchased Millipore (IC50 Profiler Express service)
How it was run: as §1

SAPK2b(h) = SAPK2b(h) (Homo sapiens, UniProt Q15759)
How it was run: as §1

TAO1(h) = molecular target: T5, TAO1(h) (Homo sapiens, UniProt Q7L7X3)
T5 sequence (Q7L7X3 1-1001): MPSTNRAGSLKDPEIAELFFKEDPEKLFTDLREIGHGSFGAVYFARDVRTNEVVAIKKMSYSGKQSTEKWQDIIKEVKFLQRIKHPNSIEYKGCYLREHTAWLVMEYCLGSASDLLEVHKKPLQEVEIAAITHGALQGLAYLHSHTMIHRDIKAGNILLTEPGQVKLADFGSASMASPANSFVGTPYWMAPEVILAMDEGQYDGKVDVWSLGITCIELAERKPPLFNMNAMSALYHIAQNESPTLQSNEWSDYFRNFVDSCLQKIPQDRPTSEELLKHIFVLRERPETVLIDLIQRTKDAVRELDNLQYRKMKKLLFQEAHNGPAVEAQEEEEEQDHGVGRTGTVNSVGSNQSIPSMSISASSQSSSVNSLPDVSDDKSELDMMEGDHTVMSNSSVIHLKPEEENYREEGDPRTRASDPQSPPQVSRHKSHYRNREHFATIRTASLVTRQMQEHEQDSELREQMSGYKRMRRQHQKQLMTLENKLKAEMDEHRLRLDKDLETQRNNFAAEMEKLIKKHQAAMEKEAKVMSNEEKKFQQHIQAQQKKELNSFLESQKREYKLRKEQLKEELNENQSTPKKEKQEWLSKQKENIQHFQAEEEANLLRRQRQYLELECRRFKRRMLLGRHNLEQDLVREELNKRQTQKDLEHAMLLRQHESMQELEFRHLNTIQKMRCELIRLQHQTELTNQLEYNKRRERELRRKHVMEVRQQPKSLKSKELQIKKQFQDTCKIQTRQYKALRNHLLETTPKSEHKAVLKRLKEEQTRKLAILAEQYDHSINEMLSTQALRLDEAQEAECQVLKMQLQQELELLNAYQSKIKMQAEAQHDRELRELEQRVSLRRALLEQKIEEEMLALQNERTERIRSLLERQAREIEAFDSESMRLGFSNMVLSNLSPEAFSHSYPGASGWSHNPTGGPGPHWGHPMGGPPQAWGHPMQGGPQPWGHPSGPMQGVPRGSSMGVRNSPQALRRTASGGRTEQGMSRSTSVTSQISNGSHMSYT
How it was run: as §1

TBK1(h) = molecular target: T6, TBK1(h) (Homo sapiens, UniProt Q9UHD2)
T6 sequence (Q9UHD2 1-729): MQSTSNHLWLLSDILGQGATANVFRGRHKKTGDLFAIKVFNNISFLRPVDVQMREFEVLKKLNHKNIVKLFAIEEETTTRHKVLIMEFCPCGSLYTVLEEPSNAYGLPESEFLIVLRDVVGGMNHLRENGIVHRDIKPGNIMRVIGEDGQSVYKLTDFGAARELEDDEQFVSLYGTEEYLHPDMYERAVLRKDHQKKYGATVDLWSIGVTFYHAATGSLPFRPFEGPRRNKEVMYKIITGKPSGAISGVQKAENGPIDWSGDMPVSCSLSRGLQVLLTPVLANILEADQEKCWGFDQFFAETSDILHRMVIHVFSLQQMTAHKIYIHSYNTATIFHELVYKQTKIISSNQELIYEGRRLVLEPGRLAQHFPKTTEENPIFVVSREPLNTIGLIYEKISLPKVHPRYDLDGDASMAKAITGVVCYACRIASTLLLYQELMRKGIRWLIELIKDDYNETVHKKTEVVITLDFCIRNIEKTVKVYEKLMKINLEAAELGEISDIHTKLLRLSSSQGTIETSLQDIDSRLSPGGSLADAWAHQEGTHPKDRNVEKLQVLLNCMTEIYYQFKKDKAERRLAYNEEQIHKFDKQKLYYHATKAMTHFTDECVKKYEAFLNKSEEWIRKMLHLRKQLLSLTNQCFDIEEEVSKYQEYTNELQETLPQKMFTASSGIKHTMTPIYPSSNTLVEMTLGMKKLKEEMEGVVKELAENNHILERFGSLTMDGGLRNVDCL
How it was run: as §1

cSRC(h) = cSRC(h) (Homo sapiens, UniProt P12931)
How it was run: as §1

SRPK2(h) = SRPK2(h) (Homo sapiens, UniProt P78362)
How it was run: as §1

Chain of CDK5/p35(h) (Q00535 whole entry): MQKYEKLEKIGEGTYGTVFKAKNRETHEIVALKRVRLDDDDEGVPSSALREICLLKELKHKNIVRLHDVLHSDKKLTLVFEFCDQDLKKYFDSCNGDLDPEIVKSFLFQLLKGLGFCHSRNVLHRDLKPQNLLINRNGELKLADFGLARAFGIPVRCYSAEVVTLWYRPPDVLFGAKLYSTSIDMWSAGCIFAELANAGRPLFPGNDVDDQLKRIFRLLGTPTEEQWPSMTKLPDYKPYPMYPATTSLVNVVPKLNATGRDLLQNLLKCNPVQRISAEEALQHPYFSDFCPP
Chain of CDK5/p35(h) (Q15078 2-307 partner limits assumed): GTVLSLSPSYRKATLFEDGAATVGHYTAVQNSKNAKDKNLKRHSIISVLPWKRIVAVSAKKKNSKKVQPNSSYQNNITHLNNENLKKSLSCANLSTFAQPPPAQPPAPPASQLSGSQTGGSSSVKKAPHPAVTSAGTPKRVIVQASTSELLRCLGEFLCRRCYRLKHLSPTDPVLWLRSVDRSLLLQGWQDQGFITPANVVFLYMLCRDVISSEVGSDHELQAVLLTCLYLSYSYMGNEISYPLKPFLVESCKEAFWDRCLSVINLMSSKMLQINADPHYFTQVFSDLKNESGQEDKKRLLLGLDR
Chain of SAPK2b(h) (Q15759 whole entry): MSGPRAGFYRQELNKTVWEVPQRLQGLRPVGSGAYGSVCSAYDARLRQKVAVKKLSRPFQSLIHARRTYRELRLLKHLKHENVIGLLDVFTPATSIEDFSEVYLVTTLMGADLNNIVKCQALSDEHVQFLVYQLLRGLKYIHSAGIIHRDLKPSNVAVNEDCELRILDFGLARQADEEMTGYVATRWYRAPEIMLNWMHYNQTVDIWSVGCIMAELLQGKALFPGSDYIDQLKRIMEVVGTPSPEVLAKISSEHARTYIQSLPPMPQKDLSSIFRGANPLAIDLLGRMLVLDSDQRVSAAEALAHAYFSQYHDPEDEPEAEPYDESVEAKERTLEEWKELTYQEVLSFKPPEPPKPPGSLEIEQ
T1 sequence (P08631 whole entry): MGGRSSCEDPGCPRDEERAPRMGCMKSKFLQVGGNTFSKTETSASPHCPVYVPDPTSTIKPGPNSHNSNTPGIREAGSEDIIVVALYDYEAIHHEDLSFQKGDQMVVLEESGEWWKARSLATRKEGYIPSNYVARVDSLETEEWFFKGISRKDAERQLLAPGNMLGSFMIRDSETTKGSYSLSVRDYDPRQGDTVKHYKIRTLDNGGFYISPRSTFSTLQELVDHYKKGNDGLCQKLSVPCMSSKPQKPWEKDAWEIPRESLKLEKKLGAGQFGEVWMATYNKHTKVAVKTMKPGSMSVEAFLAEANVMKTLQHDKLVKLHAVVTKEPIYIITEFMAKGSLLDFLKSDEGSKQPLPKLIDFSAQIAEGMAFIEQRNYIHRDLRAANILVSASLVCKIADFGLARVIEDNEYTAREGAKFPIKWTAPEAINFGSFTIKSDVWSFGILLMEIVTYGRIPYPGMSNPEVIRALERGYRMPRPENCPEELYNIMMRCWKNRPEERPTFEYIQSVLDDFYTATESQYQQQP
Chain of Fyn(h) (P06241 whole entry): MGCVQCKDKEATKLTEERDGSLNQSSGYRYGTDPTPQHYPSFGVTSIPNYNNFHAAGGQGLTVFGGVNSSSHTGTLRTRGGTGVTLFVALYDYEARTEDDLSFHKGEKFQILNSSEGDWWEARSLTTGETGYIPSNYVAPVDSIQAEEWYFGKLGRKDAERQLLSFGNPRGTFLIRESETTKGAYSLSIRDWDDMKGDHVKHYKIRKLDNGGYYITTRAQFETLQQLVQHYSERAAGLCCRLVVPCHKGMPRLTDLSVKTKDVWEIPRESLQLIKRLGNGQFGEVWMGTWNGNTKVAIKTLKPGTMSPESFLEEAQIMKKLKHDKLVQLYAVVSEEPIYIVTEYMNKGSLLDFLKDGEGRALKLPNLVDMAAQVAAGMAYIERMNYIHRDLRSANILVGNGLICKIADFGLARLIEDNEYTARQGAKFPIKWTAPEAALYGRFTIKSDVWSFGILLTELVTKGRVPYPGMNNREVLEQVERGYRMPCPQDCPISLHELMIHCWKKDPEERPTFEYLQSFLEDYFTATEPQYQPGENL
Chain of SRPK2(h) (P78362 whole entry): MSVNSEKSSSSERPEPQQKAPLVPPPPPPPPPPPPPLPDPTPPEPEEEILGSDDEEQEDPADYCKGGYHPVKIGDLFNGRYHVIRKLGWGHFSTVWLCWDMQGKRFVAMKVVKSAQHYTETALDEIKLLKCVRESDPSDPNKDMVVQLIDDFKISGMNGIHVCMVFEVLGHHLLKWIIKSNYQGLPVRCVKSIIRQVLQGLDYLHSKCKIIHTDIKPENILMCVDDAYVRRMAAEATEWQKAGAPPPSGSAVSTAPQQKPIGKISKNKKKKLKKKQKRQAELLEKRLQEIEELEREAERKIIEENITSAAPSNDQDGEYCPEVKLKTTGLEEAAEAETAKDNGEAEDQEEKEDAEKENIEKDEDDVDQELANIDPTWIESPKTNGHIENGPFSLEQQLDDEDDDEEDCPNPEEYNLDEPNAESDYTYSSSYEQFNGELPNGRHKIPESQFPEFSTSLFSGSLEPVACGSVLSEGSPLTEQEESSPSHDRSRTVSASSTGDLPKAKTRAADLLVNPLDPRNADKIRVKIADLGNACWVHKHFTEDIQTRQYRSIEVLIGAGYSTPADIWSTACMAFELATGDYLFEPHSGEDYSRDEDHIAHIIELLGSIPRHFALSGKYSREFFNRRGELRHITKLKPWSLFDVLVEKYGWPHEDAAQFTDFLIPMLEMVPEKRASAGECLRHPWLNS
T3 sequence (O75116 whole entry): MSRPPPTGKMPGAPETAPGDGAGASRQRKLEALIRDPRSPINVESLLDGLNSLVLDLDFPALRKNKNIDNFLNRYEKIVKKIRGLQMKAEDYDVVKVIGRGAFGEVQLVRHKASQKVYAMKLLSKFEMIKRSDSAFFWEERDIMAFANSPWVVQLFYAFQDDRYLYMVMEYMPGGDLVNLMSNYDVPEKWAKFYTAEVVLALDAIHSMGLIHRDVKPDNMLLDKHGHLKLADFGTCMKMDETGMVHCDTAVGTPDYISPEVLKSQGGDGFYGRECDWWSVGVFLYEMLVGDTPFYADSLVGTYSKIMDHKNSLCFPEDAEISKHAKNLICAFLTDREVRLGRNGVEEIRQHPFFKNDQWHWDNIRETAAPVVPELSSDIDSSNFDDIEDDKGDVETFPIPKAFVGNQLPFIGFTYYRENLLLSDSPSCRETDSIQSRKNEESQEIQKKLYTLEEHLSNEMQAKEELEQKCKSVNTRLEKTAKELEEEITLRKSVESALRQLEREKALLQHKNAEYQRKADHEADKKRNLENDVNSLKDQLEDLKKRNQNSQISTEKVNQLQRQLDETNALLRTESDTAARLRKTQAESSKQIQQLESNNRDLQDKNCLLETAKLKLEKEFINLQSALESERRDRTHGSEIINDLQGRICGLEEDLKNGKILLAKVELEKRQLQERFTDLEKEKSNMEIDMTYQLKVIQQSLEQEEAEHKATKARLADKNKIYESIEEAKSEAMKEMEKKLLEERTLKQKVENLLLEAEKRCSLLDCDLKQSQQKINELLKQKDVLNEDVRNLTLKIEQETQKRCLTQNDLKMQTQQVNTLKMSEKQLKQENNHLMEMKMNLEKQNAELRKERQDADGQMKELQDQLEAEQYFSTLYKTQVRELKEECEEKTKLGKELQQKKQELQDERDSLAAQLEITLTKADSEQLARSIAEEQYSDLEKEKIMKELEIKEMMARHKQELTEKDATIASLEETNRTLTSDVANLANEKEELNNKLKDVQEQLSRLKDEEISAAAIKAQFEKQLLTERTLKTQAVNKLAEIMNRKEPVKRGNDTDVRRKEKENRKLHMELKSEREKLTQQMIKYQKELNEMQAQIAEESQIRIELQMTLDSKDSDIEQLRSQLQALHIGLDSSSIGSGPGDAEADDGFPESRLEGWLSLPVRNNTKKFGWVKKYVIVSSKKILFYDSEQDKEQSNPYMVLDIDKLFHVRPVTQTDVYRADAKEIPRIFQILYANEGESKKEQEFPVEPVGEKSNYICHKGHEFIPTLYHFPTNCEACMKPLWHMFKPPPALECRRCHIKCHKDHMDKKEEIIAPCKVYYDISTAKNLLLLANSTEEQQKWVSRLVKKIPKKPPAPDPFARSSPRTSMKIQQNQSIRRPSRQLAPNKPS

Row | Sequence | CDK2/cyclinE(h) % activity (CDK2/cyclinE(h)) [%] | CDK5/p35(h) % activity (CDK5/p35(h)) [%] | Fyn(h) % activity (Fyn(h)) [%] | Hck(h) activated % activity (Hck(h) activated) [%] | Met(D1246H)(h) % activity (Met(D1246H)(h)) [%] | PhKγ2(h) % activity (PhKγ2(h)) [%] | ROCK-II(h) % activity (ROCK-II(h)) [%] | Ros(h) % activity (Ros(h)) [%] | SAPK2b(h) % activity (SAPK2b(h)) [%] | TAO1(h) % activity (TAO1(h)) [%] | TBK1(h) % activity (TBK1(h)) [%] | cSRC(h) % activity (cSRC(h)) [%] | SRPK2(h) % activity (SRPK2(h)) [%]
1 | FAKLAARLYRKALARQLGVAA [MMI-0300] | 94 | 79 | 74 | 82 | 125 | 46 | 74 | 95 | 81 | 82 | 37 | 26 | –
2 | KAFAKLAARLYRKALARQLGVAA [MMI-0400] | 83 | 76 | 54 | 81 | 68 | 38 | 77 | 99 | 82 | 73 | 39 | 14 | 97
3 | HRRIKAWLKKIKALARQLGVAA (Mammalian) [MMI-0500] | 19 | 59 | 83 | 67 | 150 | 16 | 2 | 150 | 42 | 24 | 16 | 30 | 80
4 | YARAAARQARAKALNRQLGVA (Mammalian) [MMI-0200] | – | 92 | 75 | 100 | 139 | 86 | 85 | 86 | 95 | – | 98 | 32 | 100
